Results reported in US20240150494A1 (ROCKEFELLER UNIVERSITY, published 2024).

How the values were obtained:
[1] = target: T1, IgG1, G0 afucosylated glycoform (antibody not named); assay: sandwich ELISA, IgG titrated
T1 construct: also called GO

[2] = target: T2, anti-NP (4-hydroxy-3-nitrophenylacetyl) antibody clone 3B62 IgG1, afucosylated; assay: SPR, 1:1 Langmuir global kinetic fit, 256 to 16 nM in 2-fold steps
T2 construct: In the FcγRIIIA ELISA it stood as an immune complex with NP-BSA (10:1); also called 3B62 IgG1 G2; monomeric 3B62

B1: B7 (VHH)
VHH: QVQLQESGGGLVQAGGSLRLSCAASGGISRYKTMGWYRQAPGKEREFVAGITWGGSTYYADSVKGRFTISRDNAKNTVYLQMNSLKPEDTAVYYCSVDGGTYADPYHYYWGQGTQVTVSS
notes: also called clone B7; nanobody B7; not shown: His tag and AviTag of the pET26-b(+) construct
EC50 (read off the curve) [1]: ~0.4 µg/mL | Kd [2]: 3.76 µM
